Consider three molecules from article PMC11821514 (Nature Cell Biology, 2025).

One assay has as its target T1, StrepII–GFP–Atg11 (budding yeast, UniProt Q12527 1-1178).
T1 construct: Atg11, budding yeast; the ATG11 ORF was subcloned with an N-terminal StrepII–GFP tag into a pLIB vector; Used as preformed condensates (20 min at room temperature in 20 mM HEPES pH 7.5, 150 mM NaCl, 5 mM DTT); also called GFP–Atg11 condensates; GFP–Atg11 droplets; source: Sf9 insect cells, baculovirus, purified (Strep-TactinXT); not shown: GFP, N-terminal, kept
T1 sequence (looked up): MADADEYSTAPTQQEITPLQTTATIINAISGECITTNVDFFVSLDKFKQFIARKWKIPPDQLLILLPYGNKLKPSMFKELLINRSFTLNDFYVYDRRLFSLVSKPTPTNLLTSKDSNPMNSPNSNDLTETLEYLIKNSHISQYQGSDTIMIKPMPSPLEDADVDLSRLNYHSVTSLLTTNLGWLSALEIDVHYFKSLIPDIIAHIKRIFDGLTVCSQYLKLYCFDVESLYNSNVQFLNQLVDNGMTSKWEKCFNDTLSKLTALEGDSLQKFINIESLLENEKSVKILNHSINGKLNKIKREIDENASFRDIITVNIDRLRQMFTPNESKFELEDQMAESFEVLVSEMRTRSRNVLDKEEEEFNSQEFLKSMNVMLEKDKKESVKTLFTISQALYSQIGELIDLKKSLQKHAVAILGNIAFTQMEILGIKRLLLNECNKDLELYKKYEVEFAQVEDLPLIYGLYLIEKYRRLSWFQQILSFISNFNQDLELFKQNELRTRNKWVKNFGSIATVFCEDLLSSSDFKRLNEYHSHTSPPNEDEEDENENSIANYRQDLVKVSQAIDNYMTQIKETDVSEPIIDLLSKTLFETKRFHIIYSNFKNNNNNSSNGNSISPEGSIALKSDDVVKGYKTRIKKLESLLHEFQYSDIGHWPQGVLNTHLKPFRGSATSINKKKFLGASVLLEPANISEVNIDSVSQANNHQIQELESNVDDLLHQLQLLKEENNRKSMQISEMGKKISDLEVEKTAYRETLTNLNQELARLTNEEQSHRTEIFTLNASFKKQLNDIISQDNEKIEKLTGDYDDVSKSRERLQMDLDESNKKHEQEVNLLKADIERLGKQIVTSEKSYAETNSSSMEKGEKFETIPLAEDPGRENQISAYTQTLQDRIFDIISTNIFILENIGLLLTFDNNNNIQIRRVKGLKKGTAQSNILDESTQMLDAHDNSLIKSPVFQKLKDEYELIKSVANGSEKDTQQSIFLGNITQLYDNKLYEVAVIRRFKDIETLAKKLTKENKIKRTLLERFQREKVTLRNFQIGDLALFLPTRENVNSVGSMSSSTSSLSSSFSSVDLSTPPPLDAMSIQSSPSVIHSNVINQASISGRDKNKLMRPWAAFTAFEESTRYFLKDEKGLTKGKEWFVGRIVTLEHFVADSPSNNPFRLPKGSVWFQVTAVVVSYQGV
In words: bead binding assay read by fluorescence microscopy; GST–BFP fusion on GSH beads incubated with preformed GFP–Atg11 condensates (purified by the methods and results, Sf9 lysate by the legends), 20 min at room temperature; imaged before and after eight washes with 20 mM HEPES pH 7.5, 150 mM NaCl, 5 mM DTT. Particulars: both partners purified.

Another assay has as its target T2, GST–Atg11^685–1178 (budding yeast, UniProt Q12527 685-1178).
T2 construct: also called C-terminal fragment of Atg11; not shown: GST, N-terminal, kept
T2 sequence (looked up): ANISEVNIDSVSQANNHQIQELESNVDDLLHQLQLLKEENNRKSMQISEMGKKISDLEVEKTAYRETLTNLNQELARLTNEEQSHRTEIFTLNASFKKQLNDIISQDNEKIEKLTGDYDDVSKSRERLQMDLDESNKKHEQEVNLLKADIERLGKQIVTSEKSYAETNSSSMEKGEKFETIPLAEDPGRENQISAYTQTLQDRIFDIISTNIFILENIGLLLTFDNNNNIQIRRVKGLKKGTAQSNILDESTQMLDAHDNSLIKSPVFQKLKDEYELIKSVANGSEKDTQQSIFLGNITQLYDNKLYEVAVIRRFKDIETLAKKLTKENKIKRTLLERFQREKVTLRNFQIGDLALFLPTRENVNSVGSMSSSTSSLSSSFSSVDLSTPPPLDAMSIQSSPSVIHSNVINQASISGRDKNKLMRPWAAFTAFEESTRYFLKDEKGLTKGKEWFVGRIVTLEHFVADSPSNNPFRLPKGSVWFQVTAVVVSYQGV
In words: pull-down; GST fusions on GSH beads incubated with purified recombinant Atg19^3D, 20 min at room temperature; six washes with GST-wash buffer containing 0.02% Tween-20; immunoblotting. Particulars: both partners purified. (Immunoblotting shows a protein as a band on a membrane.)

B1: GST–BFP–Vac8 (natural protein, budding yeast, UniProt P39968 1-578, looked up)
chain: MGSCCSCLKDSSDEASVSPIADNEREAVTLLLGYLEDKDQLDFYSGGPLKALTTLVYSDNLNLQRSAALAFAEITEKYVRQVSREVLEPILILLQSQDPQIQVAACAALGNLAVNNENKLLIVEMGGLEPLINQMMGDNVEVQCNAVGCITNLATRDDNKHKIATSGALIPLTKLAKSKHIRVQRNATGALLNMTHSEENRKELVNAGAVPVLVSLLSSTDPDVQYYCTTALSNIAVDEANRKKLAQTEPRLVSKLVSLMDSPSSRVKCQATLALRNLASDTSYQLEIVRAGGLPHLVKLIQSDSIPLVLASVACIRNISIHPLNEGLIVDAGFLKPLVRLLDYKDSEEIQCHAVSTLRNLAASSEKNRKEFFESGAVEKCKELALDSPVSVQSEISACFAILALADVSKLDLLEANILDALIPMTFSQNQEVSGNAAAALANLCSRVNNYTKIIEAWDRPNEGIRGFLIRFLKSDYATFEHIALWTILQLLESHNDKVEDLVKNDDDIINGVRKMADVTFERLQRSGIDVKNPGSNNNPSSNDNNSNNNDTGSEHQPVEDASLELYNITQQILQFLH
notes: Vac8, vacuolar membrane protein, budding yeast; The results text says GST–Vac8, the legend GST–BFP–Vac8; also called GST–Vac8; recombinant GST–Vac8; not shown: GST, N-terminal, kept; BFP, N-terminal, kept
For the molecule B1, in the assay with StrepII–GFP–Atg11, the binding result is recorded as “binds”.

B2: Atg19^3D (natural protein, budding yeast, UniProt P35193 1-415, looked up)
chain: MNNSKTNQQMNTSMGYPLTVYDECNKFQLIVPTLDANIMLWCIGQLSLLNDSNGCKHLFWQPNDKSNVRILLNNYDYGHLFKYLQCQRKCSVYIGEGTLKKYNLTISTSFDNFLDLTPSEEKESLCREDAHEDPVSPKAGSEEEISPNSTSNVVVSRECLDNFMKQLLKLEESLNKLELEQKVTNKEPNHRISGTIDIPEDRSELVNFFTELKTVKQLEDVFQRYHDYERLSQECDSKTEIASDHSKKETKIEVEPPNERSLQITMNQRDNSLYFQLFNNTNSVLAGNCKLKFTDAGDKPTTQIIDMGPHEIGIKEYKEYRYFPYALDLEAGSTIEIENQYGEVIFLGKYGSSPMINLRPPSRLSAESLQASQEPFYSFQIDTLPELDDDDIISTDISLSYDGDDNEKALTWEEL
notes: Atg19, budding yeast, phospho-mimetic mutant S390D, S391D, S396D; also called purified recombinant Atg19^3D; source: E. coli BL21(DE3), expressed as GST–Atg19^3D from pGEX-4T.1, purified (GSH beads, thrombin elution, Superdex200); not shown: GST, N-terminal, cleaved
Regarding B2, the binding result in the assay with GST–Atg11^685–1178 is on record as “binds”.

B3: GST–mTagBFP–Atg19^3D (natural protein, budding yeast, UniProt P35193 1-415, looked up)
chain: MNNSKTNQQMNTSMGYPLTVYDECNKFQLIVPTLDANIMLWCIGQLSLLNDSNGCKHLFWQPNDKSNVRILLNNYDYGHLFKYLQCQRKCSVYIGEGTLKKYNLTISTSFDNFLDLTPSEEKESLCREDAHEDPVSPKAGSEEEISPNSTSNVVVSRECLDNFMKQLLKLEESLNKLELEQKVTNKEPNHRISGTIDIPEDRSELVNFFTELKTVKQLEDVFQRYHDYERLSQECDSKTEIASDHSKKETKIEVEPPNERSLQITMNQRDNSLYFQLFNNTNSVLAGNCKLKFTDAGDKPTTQIIDMGPHEIGIKEYKEYRYFPYALDLEAGSTIEIENQYGEVIFLGKYGSSPMINLRPPSRLSAESLQASQEPFYSFQIDTLPELDDDDIISTDISLSYDGDDNEKALTWEEL
notes: Atg19, budding yeast, phospho-mimetic mutant S390D, S391D, S396D; also called GST–BFP–Atg19^3D; Atg19^3D-decorated beads; not shown: GST, N-terminal, kept; mTagBFP, N-terminal, kept
B3: the binding result in the assay with StrepII–GFP–Atg11 was “binds”.
